Measured values as given in patent US20240109974A1 (SHANDONG SIMCERE BIOPHARMACEUTICAL, published 2024).

Key:
[1] = biological target: T1, Cynomolgus TNFR2-His (Sino 90102-C08H) (cynomolgus monkey, UniProt A0A2K5VET2 132-366); test: ELISA, cynomolgus TNFR2-His coated
T1 construct: Bought protein; also called cynomolgus monkey TNFR2; recombinant cynomolgus monkey TNFR2 protein; not shown: His tag
T1 sequence: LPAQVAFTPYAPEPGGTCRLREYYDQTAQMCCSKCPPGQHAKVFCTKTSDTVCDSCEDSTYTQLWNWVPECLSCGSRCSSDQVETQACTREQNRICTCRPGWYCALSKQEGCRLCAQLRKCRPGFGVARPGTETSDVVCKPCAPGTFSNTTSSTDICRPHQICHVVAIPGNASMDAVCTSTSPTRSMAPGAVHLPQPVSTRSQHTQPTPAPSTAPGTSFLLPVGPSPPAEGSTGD
Protocol: (§1) The test humanized antibody against TNFR2 (as described in Example 1, the antibody was comprised of variable regions linked to IgG-Fc; the WT chimeric antibody also adopted the IgG-Fc structure) was subjected to 3.33-fold gradient dilution, loaded with 100 μl/well, and incubated with shaking at room temperature for 1.5 hours. The plate was washed, and then a working solution of murine anti-human IgG Fc-HRP (diluted at 1:10000) was added, loaded with 100 μl/well, and incubated with shaking at room temperature for 1.0 hour. The plate was washed again, and then the substrate TMB of HRP was added to develop colour. A stop solution was added to stop the reaction, and then a microplate reader (MD 13) was used to read the absorbance value. The binding curve of an antibody was drawn with antibody concentration as the abscissa and corresponding OD value as the ordinate, and fitted with four parameters (GraphPad Prism9) to calculate the EC50 value. The smaller the EC50 value, the stronger the binding ability of an antibody to human/cynomolgus monkey TNFR2. The binding effect of a humanized antibody was normalized to its corresponding human-murine chimeric antibody WT (see SEQ ID NOs: 38-43 for the sequence). The higher the percentage value, the better the binding effect of the humanized antibody. The results of binding of an anti-TNFR2 antibody to a human TNFR2 protein are shown in FIG. 1 and Table 4, and the results of binding of an anti-TNFR2 antibody to cynomolgus monkey TNFR2 are shown in FIG. 2 and Table 4.

[2] = biological target: T1, Cynomolgus TNFR2-His (Sino 90102-C08H); test: SPR (Biacore T200), antibody captured on Protein A chip
Protocol: (§2) Biacore was used to detect the specific binding of a test anti-TNFR2 antibody to human and cynomolgus monkey TNFR2 proteins. In this experiment, a Protein A chip was used, the time required for the chip to capture the diluted antibody was determined by manual run, so that the Rmax of the saturated binding to an antigen was 50 RU. […] The affinity of an antibody for an antigen was determined by using multi-cycle dynamics. In each cycle, an antibody was injected and then a TNFR2 protein at a gradient concentration was injected, so that the antigen and the antibody underwent binding and dissociation processes. After each cycle, the Protein A chip was regenerated with Glycine pH 1.5 (removing the protein on the chip). The affinity KD of an antibody and an antigen was fitted with BIAcore T200 analysis software.

[3] = biological target: T2, Human TNFR2-His (Sino 10417-H08H) (human, UniProt P20333 23-257); test: as above
T2 construct: Bought protein; also called recombinant human TNFR2 protein; not shown: His tag
T2 sequence (looked up): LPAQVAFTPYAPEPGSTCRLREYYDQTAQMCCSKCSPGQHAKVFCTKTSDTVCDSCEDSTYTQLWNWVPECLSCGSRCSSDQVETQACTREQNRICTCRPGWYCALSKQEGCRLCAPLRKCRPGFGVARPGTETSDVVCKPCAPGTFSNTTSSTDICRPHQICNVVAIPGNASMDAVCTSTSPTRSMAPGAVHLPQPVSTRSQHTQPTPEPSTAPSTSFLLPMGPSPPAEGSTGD
Protocol: as §2

[4] = biological target: T2, Human TNFR2-His (Sino 10417-H08H); test: ELISA, human TNFR2-His coated
Protocol: as §1

[5] = biological target: T3, human TNFR2 on the surface of CHO-TNFR2 cells (human, UniProt P20333 23-461); test: competition flow cytometry on CHO-TNFR2 cells, competitor human TNFα-biotin
T3 construct: whole, on cells
T3 sequence (looked up): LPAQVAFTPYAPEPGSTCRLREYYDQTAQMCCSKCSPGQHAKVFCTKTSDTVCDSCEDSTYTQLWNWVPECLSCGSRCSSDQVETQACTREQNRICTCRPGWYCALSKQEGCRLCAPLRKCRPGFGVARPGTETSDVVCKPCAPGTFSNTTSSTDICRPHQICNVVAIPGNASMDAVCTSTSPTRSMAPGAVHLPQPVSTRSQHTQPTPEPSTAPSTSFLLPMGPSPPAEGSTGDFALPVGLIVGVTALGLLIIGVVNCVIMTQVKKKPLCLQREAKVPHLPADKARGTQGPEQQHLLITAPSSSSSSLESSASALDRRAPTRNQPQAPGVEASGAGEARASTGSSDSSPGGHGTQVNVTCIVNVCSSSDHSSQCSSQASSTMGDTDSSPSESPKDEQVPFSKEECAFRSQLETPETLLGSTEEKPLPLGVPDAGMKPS
Protocol: CHO stable cells highly expressing human TNFR2 were used for the experiment (the same as CHO-TNFR2 in Example 4). The CHO-TNFR2 cells were digested, washed twice with DPBS, then stained with Live/Dead (L/D) (20 minutes at room temperature), and plated at a density of 1×10⁵ cells/50 μl/well. A test anti-TNFR2 antibody was diluted to 6 μg/ml with a staining buffer as the starting concentration: the antibody was subjected to 3.33-fold gradient dilution, with a total of 7 concentration points. The diluted antibody was added to the plated cells at 50 μl/well, and the mixture was mixed well by gentle pipetting, and incubated at 4° C. for 30 minutes. Then the diluted 100 ng/ml of human TNFα-biotin was added at 100 μl/well, and the mixture was mixed well by gentle pipetting, and then incubated at 4° C. for 30 minutes. The mixture was washed twice with a staining buffer, and then 0.12 μg/ml PE-streptavidin (BioLegend, Cat #405204) was added at 100 μl/well; the resulting mixture was incubated at 4° C. for 30 minutes. The mixture was washed twice with a staining buffer, and then 150 μl of staining buffer was added to resuspend the cells; signals were detected by a flow cytometer (Thermo Attune NxT). The inhibitory curve of an antibody was drawn with antibody concentration as the abscissa and corresponding MFI value as the ordinate, and fitted with four parameters (GraphPad Prism9) to calculate the IC50 value. The smaller the IC50 value, the stronger the ability of an antibody to inhibit the binding of human TNFα to human TNFR2. The blocking effect of a humanized antibody was normalized to its corresponding human-murine chimeric WT antibody. The higher the percentage value, the better the inhibitory effect of the humanized antibody.

B1: 224-Hu5 (antibody, V domains shown)
VH: QVQLVQSGSELKKPGASVKVSCKASGFNNKDIYMHWVRQAPGQGLEWMGRIDPATGNTKHDPKFQDKAVLSSDTSVSTAYLQISSLKAEDTAVYYCARSPYGDFGAMDYWGQGTLVTVSS
VL: DIQMTQSPSSLSASVGDRVTITCTASSSVSSNYLHWYQQKPGKAPKLLIYSTSNLPSGVPSRFSGSGSGTDYSLTISSLQPEDFATYYCHQYHRSPWTFGQGTKVEIK
notes: Humanized form of #224; also called VH9 + VL9
EC50 [1]: 0.00969 µg/mL
Kd [2]: 3.31 nM
koff [2]: 0.000828 s⁻¹
kon [2]: 250000 M⁻¹ s⁻¹
Kd [3]: 4.28 nM
koff [3]: 0.000682 s⁻¹
kon [3]: 159000 M⁻¹ s⁻¹
EC50 [4]: 0.0116 µg/mL
IC50 [5]: 0.062 µg/mL
